From patent US20130302270A1

How the values were obtained:
[1] = target: MUC16 (CA125), membrane-bound, on tumor cells (human) (UniProt Q8WXI7)
[2] = target: MUC16 (CA125), membrane-bound, on tumor cells (human) (UniProt Q8WXI7); experiment: flow cytometry on MUC16-positive OVCAR3 cells, anti-FLAG detection

## soluble mesothelin (Meso), secreted FLAG-tagged form of human mesothelin (from UniProt Q13421) (ligand)
[1]
  reduction of Meso-TR3 killing of OVCAR3 cells by soluble mesothelin (% cell killing): 40
[2]
  percent of cells positive for the FLAG epitope tag: 100%
